The text below walks through data of patent publication US9927440B2, “Protein engineering” (priority 2009, dated 2018).

Series [1] can be described thus: Intrinsic reaction rate of IAM-biotin with unprotected cysteine (GSH), iodide absorbance at 226 nm. The class given is physicochemical. To be noted: pH 7.6; for pseudo-first order rate constant (kint): 80 μM IAM-biotin, 800 μM GSH. The method, then:
FIGS. 10A-C show the determination of kint in model compounds and unfolded SN.
The iodoacetyl moiety of IAM-biotin (EZ-Link™ Iodoacetyl-PEG2-Biotin; Pierce; 21334) reacts primarily with free thiolate to form a stable thioether bond. Because thiolate was the predominant reactive species, the reaction rate was dependent on the pKa of cysteine (˜8.6) relative to solution pH (which was set to 7.6). The kint values reported here were only valid for pH 7.6. kint was determined for an unprotected cysteine by reacting IAM-biotin with L-glutathione (GSH) (Sigma; G4251) and monitoring the absorbance of the liberated iodide ion (ϵ226=12,600M^−1 cm^−1 at 226 nm) as function of time. Second-order rate constants for the reaction of IAM-biotin with GSH were measured under pseudo first-order conditions at 25° C., 35° C., 45° C. and 55° C. (80 μM IAM-biotin, 800 μM GSH, 25 mM MOPS, 100 mM KCl and pH 7.6) and analyzed in terms of the Arrhenius equation (see FIG. 10).

The target of series [2] is T1, E. coli ribose-binding protein (ecRBP) (Escherichia coli, UniProt P02925, L86C/T28W).
T1 construct: made in house; host or cells: cell-free TnT, E. coli BL21 Star (DE3) extract
T1 sequence (P02925 other isoform, or with tags, fused parts or gaps T28W/L86C): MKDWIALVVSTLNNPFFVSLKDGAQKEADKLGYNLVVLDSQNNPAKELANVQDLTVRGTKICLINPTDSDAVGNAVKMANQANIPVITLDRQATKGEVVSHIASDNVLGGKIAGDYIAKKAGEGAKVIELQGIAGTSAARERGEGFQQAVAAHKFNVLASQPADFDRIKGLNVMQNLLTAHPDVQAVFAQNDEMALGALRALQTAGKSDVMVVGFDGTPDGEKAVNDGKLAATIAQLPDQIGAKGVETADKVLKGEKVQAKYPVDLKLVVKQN
The experiment in a line: biochemical. The note with it: for ΔG / ΔΔG / kex: ecRBP.L62C, 48.9 °C; for kex: 1.00E−03 M IAM. The method, then: (§1) The rate of labeling of internal cysteine residues was measured by reacting 30-50 μL of ˜0.1 μM protein sample (i.e., ˜3-5 picomoles of protein) with excess IAM-biotin (1 mM unless otherwise stated) at constant temperature (25 mM MOPS, 100 mM KCl and pH 7.6). 5 μL aliquots were removed at fixed time intervals and quenched by addition of 2 μL 2M β-mercaptoethanol (Sigma; M6250). Following addition of 5 μL LDS-buffer (Invitrogen; NP0007) and heating for 2 min at 85° C., (un)labeled protein species were resolved by SDS-PAGE (Novex 4-12% Bis-Tris Gels; Invitrogen; NP0321). […] For the experiment shown in FIG. 8A, ecRBP variant L62C was modified with 1 mM IAM-biotin at 47.1° C., pH 7.6. […] Streptavidin was used to alter the electrophoretic mobility of the labeled protein (Streptavidin bands indicated by a, b, and c). […] Error bars represent the estimated uncertainty of the integrated band intensities (˜2%). For the experiment shown in FIG. 8B, SN variant L36C was labeled with IAM-biotin at 35.3° C., pH 7.6. […] At 29.3° C., 26.3° C. and 23.3° C., kint and klabel were manipulated by increasing the concentration of IAM-biotin from 1 mM to 3.16 mM.
(§2) The modulation of protein stability by binding of metals, ligands, activators, inhibitors, substrates, nucleic acid or other proteins can be used to measure binding affinities within a GUWO. For a protein with a single binding site, the free energy of ligand binding was described by
(§3) [formula] where P was the binding polynomial, [L] the total ligand concentration, and KD the apparent dissociation constant of the ligand. For proteins with multiple ligand-binding sites, P was expanded as described in Equations 21-36 below.
(§4) By thermodynamic linkage, any change in ΔGU caused predominantly by ligand binding (Scheme 1) is ΔGbind=ΔΔ^LGU=Δ^LGU−Δ^apoGU [20] where Δ^LGU and Δ^apoGU were the stability of the protein in the presence of absence of ligand respectively. Equation 20 was used to obtain apparent KD values from either the ligand dependence of ΔΔGU (by curve fitting), or from a single measurement of ΔΔGU.

Series [3] addresses T2, E. coli ribose-binding protein (ecRBP) (Escherichia coli, UniProt P02925, A213C/T28W).
T2 construct: made in house; host or cells: cell-free TnT, E. coli BL21 Star (DE3) extract
Description: biochemical. To be noted: for ΔG / ΔΔG / kex: ecRBP.A188C, 54.6 °C; for kex: 1.00E−03 M IAM. On the procedure: as §1, §2, §3, §4

Series [4] in a line: Quantitative cysteine reactivity (QCR): protein stability, temperature dependence of ΔGU. The class given is physicochemical. The note with it: for ΔHm: Gibbs-Helmholtz fit, ΔCp assigned a priori; for ΔG°U at 25° C.: ecRBP mutants, Gibbs-Helmholtz extrapolation; for apparent Tm below wild-type: versus literature wild-type Tm. The method, then: as §1
Following staining with GelCode™ Blue Stain reagent (Thermo Scientific; 24592), gel images were digitized and band intensities quantified by densitometry (ImageJ; Rasband (1997-2009), U.S. National Institutes of Health, Bethesda, Md.) and fit to a single exponential to derive klabel. When designing QCR experiments, consideration was given to the degradation of the iodoacetyl moiety of IAM-biotin, which was dependent on time, exposure to light, and temperature. […] At higher temperatures the degradation of IAM-biotin is taken into account, primarily by limiting the labeling reaction to less than ˜90 min.
[formula] applies only if the labeling conditions were fully in the EX2 limit, when kclose>>kint. As labeling reagent concentration increases, kint increases concomitantly and eventually kint will become equal to or greater than kclose. Under these conditions, the observed labeling rate was determined solely by kopen and klabel and was no longer a measure of stability. The reagent concentration and environmental conditions (i.e. pH and temperature) at which EX2 conditions no longer apply varies according to the (un)folding kinetics of the protein. A simple test of reaction mechanism was to change reagent concentration and remeasure the kinetics: EX2 conditions were satisfied if the change in the observed labeling rate was proportional to the change in reagent concentration (see FIG. 9).
The QCR experiment was designed to determine the Gibbs free energy of global protein unfolding by measuring the reactivity of wild-type or mutant cysteines buried in a hydrophobic core. […] These mutant proteins were produced in 200 μL batches by cell-free coupled transcription and translation in E. coli extract. […] This approach uses approximately 0.5 picomoles (˜10 nanograms) of protein per time point and can use a variety of thiol-reactive reagents that alter electrophoretic mobility or were highly fluorescent.
The QCR method exploits the conformational fluctuations of a protein to measure conformational free energy. Cysteines that were protected in the folded ensemble can be modified by thiol-reactive probe only by complete exposure to bulk solvent by transient unfolding reactions, as described by a two-step reaction scheme:
Unfolding free energies (ΔGU) can be determined under EX2 conditions (kclose>>kint) by measuring klabel, the rate constant for labeling a protected cysteine at a specified concentration of thiol probe [P]

[5] abbreviates: second-order rate constants 25-55 °C.

T2 sequence (P02925 other isoform, or with tags, fused parts or gaps T28W/A213C): as the sequence (P02925 other isoform, or with tags, fused parts or gaps T28W/L86C) above, with C62L, A189C counted along it

With `O=C(CI)NCCOCCOCCNC(=O)CCCC[C@@H]1SC[C@@H]2NC(=O)N[C@@H]21` [IAM-biotin, EZ-Link™ Iodoacetyl-PEG2-Biotin], the “pseudo-first order rate constant (kint)” value amounted to 0.00062 s⁻¹ in series [1] (25 °C, 25 mM MOPS, 100 mM KCl); 0.00016 s⁻¹ in series [1] (35 °C); 0.0035 s⁻¹ in series [1] (45 °C); 0.0077 s⁻¹ in series [1] (55 °C). Further, the “second order rate constant (k=kint/[GSH])” value in series [1] (25 °C) turned out to be 0.78 M⁻¹ s⁻¹; in series [1] (35 °C) it was 2.0 M⁻¹ s⁻¹; in series [1] (45 °C), 4.4 M⁻¹ s⁻¹; in series [1] (55 °C), 9.6 M⁻¹ s⁻¹. In addition, the “Arrhenius pre-exponential factor (ln A), IAM-biotin + GSH” value in series [1] (setting [5]) is reported as 27.1±0.5. Moreover, the “Arrhenius slope (−Ea/R), IAM-biotin + GSH” value in series [1] (setting [5]) is on record as −8.2×10^3±0.1×10^3.

One may read the Kd as a measure of binding affinity in units of concentration. A higher Kd goes with a looser complex. Take `O=C[C@H](O)[C@H](O)[C@H](O)CO` [ribose, reference compound]: the results for the Kd in series [2] and in series [3] were 2800 ± 200 nM and 1800 ± 100 nM, respectively.

B1: ecRBP.L62C: E. coli ribose-binding protein variant L62C (SEQ ID NO:12) (protein, listed as Escherichia coli)
chain: MKDTIALVVSTLNNPFFVSLKDGAQKEADKLGYNLVVLDSQNNPAKELANVQDLTVRGTKICLINPTDSDAVGNAVKMANQANIPVITLDRQATKGEVVSHIASDNVLGGKIAGDYIAKKAGEGAKVIELQGIAGTSAARERGEGFQQAVAAHKFNVLASQPADFDRIKGLNVMQNLLTAHPDVQAVFAQNDEMALGALRALQTAGKSDVMVVGFDGTPDGEKAVNDGKLAATIAQLPDQIGAKGVETADKVLKGEKVQAKYPVDLKLVVKQNGGSHHHHHH
As to B1, the “apparent Tm” value in series [4] (Gibbs-Helmholtz fit of QCR ΔGU(T)) was 54±1 °C. The same molecule showed a ΔHm in series [4] of 81 ± 2 kcal/mol. Further, the “ΔG°U at 25° C.” value in series [4] is 3.2 ± 0.1 kcal/mol. The “apparent Tm below wild-type” value in series [4] is about 8 °C. For the same molecule, the ΔG in series [2] ([Ligand] 0 μM) was determined as 1.0 kcal/mol; in series [2] ([Ligand] 1.5 μM (ribose)), 1.5 kcal/mol; in series [2] ([Ligand] 3 μM (ribose)), 1.8 kcal/mol; in series [2] ([Ligand] 6 μM (ribose)), 2.2 kcal/mol; in series [2] ([Ligand] 12 μM (ribose)) it was 2.6 kcal/mol; in series [2] ([Ligand] 24 μM (ribose)) it was 2.7 kcal/mol. Besides, the ΔΔG amounted to 0 kcal/mol in series [2] ([Ligand] 0 μM); 0.5 kcal/mol in series [2] ([Ligand] 1.5 μM (ribose)); 0.7 kcal/mol in series [2] ([Ligand] 3 μM (ribose)); 1.2 kcal/mol in series [2] ([Ligand] 6 μM (ribose)); 1.5 kcal/mol in series [2] ([Ligand] 12 μM (ribose)); 1.6 kcal/mol in series [2] ([Ligand] 24 μM (ribose)). The kex is 0.0099 s⁻¹ in series [2] ([Ligand] 0 μM); 0.0051 s⁻¹ in series [2] ([Ligand] 1.5 μM (ribose)); 0.0036 s⁻¹ in series [2] ([Ligand] 3 μM (ribose)); 0.00019 s⁻¹ in series [2] ([Ligand] 6 μM (ribose)); 0.00011 s⁻¹ in series [2] ([Ligand] 12 μM (ribose)); 0.00091 s⁻¹ in series [2] ([Ligand] 24 μM (ribose)).

B2: ecRBP.A188C (protein, UniProt P02925 26-296, looked up, variant A188C)
Ribose import binding protein …: KDTIALVVSTLNNPFFVSLKDGAQKEADKLGYNLVVLDSQNNPAKELANVQDLTVRGTKILLINPTDSDAVGNAVKMANQANIPVITLDRQATKGEVVSHIASDNVLGGKIAGDYIAKKAGEGAKVIELQGIAGTSAARERGEGFQQAVAAHKFNVLASQPADFDRIKGLNVMQNLLTAHPDVQAVFCQNDEMALGALRALQTAGKSDVMVVGFDGTPDGEKAVNDGKLAATIAQLPDQIGAKGVETADKVLKGEKVQAKYPVDLKLVVKQ
For the molecule B2, in series [4], the ΔHm came to 91 ± 4 kcal/mol. In addition, the “ΔG°U at 25° C.” value in series [4] was 4.1 ± 0.1 kcal/mol. Further, the “apparent Tm below wild-type” value in series [4] is about 8 °C. Also, the ΔG came out at 0.8 kcal/mol in series [3] ([Ligand] 0 μM); 1.1 kcal/mol in series [3] ([Ligand] 1.5 μM (ribose)); 1.4 kcal/mol in series [3] ([Ligand] 3 μM (ribose)); 1.6 kcal/mol in series [3] ([Ligand] 6 μM (ribose)); 2.2 kcal/mol in series [3] ([Ligand] 12 μM (ribose)); 2.5 kcal/mol in series [3] ([Ligand] 24 μM (ribose)). Moreover, the ΔΔG was 0 kcal/mol in series [3] ([Ligand] 0 μM); 0.3 kcal/mol in series [3] ([Ligand] 1.5 μM (ribose)); 0.6 kcal/mol in series [3] ([Ligand] 3 μM (ribose)); 0.8 kcal/mol in series [3] ([Ligand] 6 μM (ribose)); 1.4 kcal/mol in series [3] ([Ligand] 12 μM (ribose)); 1.7 kcal/mol in series [3] ([Ligand] 24 μM (ribose)). In addition, the kex in series [3] ([Ligand] 0 μM) was found to be 0.00217 s⁻¹; in series [3] ([Ligand] 1.5 μM (ribose)), 0.00141 s⁻¹; in series [3] ([Ligand] 3 μM (ribose)), 0.00097 s⁻¹; in series [3] ([Ligand] 6 μM (ribose)), 0.00073 s⁻¹; in series [3] ([Ligand] 12 μM (ribose)), 0.00032 s⁻¹; in series [3] ([Ligand] 24 μM (ribose)) it was 0.00019 s⁻¹.
